# Laboratory results taken from patent publication US20090252727A1 (Eli Lilly, published 2009).
# Read-outs that look alike come from different tables or passages of the source.
# T1: mouse glucagon receptor (mouse, UniProt Q61606 28-485)
# T1 construct: Cloned receptor expressed in 293HEK cells; also called murine GluR; mouse GlucR
# T1 chain: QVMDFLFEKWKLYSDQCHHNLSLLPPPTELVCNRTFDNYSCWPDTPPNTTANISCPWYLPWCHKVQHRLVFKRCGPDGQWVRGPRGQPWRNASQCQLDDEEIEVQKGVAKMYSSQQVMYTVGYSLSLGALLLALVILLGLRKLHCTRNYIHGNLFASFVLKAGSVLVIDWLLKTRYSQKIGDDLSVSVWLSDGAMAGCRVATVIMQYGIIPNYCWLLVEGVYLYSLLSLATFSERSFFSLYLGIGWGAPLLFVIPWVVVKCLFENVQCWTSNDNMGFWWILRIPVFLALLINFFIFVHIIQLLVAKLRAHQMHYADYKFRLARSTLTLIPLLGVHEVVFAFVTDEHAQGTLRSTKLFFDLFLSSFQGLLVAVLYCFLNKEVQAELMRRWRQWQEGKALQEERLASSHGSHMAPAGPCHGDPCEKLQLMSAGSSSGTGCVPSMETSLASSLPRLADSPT
# T2: cynomologous monkey glucagon receptor (cynomologous monkey, UniProt P47871 27-477 (human entry))
# T2 construct: Cloned receptor expressed in 293HEK cells; also called cyno GluR; cyno GlucR
# T2 chain: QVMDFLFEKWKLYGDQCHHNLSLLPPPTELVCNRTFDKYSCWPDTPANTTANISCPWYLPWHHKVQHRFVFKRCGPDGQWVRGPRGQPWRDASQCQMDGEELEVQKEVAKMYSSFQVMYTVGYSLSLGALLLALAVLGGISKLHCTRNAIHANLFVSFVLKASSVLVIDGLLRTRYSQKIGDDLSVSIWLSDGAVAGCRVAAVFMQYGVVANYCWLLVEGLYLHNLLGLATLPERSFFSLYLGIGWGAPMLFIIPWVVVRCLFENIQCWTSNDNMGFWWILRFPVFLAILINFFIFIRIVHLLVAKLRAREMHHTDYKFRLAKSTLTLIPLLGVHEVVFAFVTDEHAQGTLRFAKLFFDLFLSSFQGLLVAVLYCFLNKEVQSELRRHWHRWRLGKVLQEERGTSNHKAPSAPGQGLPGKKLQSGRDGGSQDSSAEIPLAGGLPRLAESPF
# Assays:
# Experiment in all cases: competition with [125I]glucagon, SPA, membranes of 293HEK cells expressing the receptor
# human glucagon receptor [1] = target: T3, human glucagon receptor (human, UniProt P47871 27-477)
# T3 construct: Cloned receptor expressed in 293HEK cells; also called human GluR; human GlucR
# mouse glucagon receptor [2] = target: T1, mouse glucagon receptor
# rat glucagon receptor [3] = target: T4, rat glucagon receptor (rat, UniProt P30082 28-485)
# T4 construct: Cloned receptor expressed in 293HEK cells; also called rat GluR; rat GlucR
# [4] = target: T2, cynomologous monkey glucagon receptor
# human glucagon receptor [5] = target: T3, human glucagon receptor; remark: listed apart in the source
# Procedure: (§1) A competitive receptor/ligand binding experiment is adapted to a scintillation proximity assay (SPA) format. Incubations are performed in clear bottom, opaque 96-well microplates. Compound is serially diluted 3-fold in binding buffer consisting of 25 mM Hepes, pH 7.4, 2.5 mM CaCl₂, 1 mM MgCl₂, 0.1% fatty acid free BSA, 0.003% tween-20 and Complete^R EDTA-free protease inhibitor tablets. […] Plates are sealed with adhesive sealing tape, mixed end over end, and incubated at room temperature for 12 hours. The radioactivity bound to the receptor (in close proximity to the WGA SPA bead) is quantified on a PE Life and Analytical Sciences Trilux Microbeta plate scintillation counter and expressed as counts per minute (CPM).
# mouse glucagon receptor [6] = target: T1, mouse glucagon receptor
# Procedure: as §1
# rat glucagon receptor [7] = target: T4, rat glucagon receptor; remark: listed apart in the source
# Procedure: as §1
# [8] = target: T2, cynomologous monkey glucagon receptor
# Procedure: as §1
Binder,Ki (human glucagon receptor [1]),Ki (mouse glucagon receptor [2]),Ki (rat glucagon receptor [3]),Ki [4],Ki (human glucagon receptor [5]),Ki (mouse glucagon receptor [6]),Ki (rat glucagon receptor [7]),Ki [8]
"Fab fragment of antibody example 4 (Fab4) (Fab, V domains shown, Expressed in E. coli; Fab = VL+CL and VH+CH1 (Fc absent); not shown: His tag) VH: QVQLQESGPGLVKPSETLSLTCTVSGDDITSGYHDWIRQPPGKGLEWIGYISYSGSTYYSPSLKSRVTISVDTSKNQFSLKLSSVTAADTAVYYCARPPGYYGFGPYALDYWGQGTLVTVSS VL: DIQMTQSPSSLSASVGDRVTITCSASSSVSYIHWYQQKPGKAPKLLIYTTSYLAHGVPSRFSGSGSGTDFTLTISSLQPEDFATYYCQQRSTLPPTFGGGTKVEIKR",< 50 nM,< 50 nM,< 50 nM,< 50 nM,2.9 nM,2.43 nM,3.3 nM,9.42 nM
"Antibody of example 7 (Ab7) (antibody, human IgG4 S228P, kappa, F234A L235A, V domains shown, Humanized full antibody with kappa light chain and modified human IgG4 Fc) VH: QVQLQESGPGLVKPSETLSLTCTVSGDDITSGYHEWIRQPPGKGLEWIGYISYSGSTSYSPSLKSRVTISVDTSKNQFSLKLSSVTAADTAVYYCARPPAYYGFGPYALDYWGQGTLVTVSS VL: DIQMTQSPSSLSASVGDRVTITCSASSSVSYIHWYQQKPGKAPKLLIYTTSYLAHGVPSRFSGSGSGTDFTLTISSLQPEDFATYYCQQRSTLPPTFGGGTKVEIKR",< 50 nM,< 50 nM,< 50 nM,< 50 nM,–,–,–,–
"Antibody of example 3 (Ab3) (antibody, human IgG4 S228P, kappa, F234A L235A, V domains shown, Humanized full antibody with kappa light chain and modified human IgG4 Fc) VH: QVQLQESGPGLVKPSETLSLTCTVSGDDITSGYWDWIRQPPGKGLEWIGYISYSGSTYYSPSLKSRVTISVDTSKNQFSLKLSSVTAADTAVYYCARPPGYYGFGPYALDYWGQGTLVTVSS VL: DIQMTQSPSSLSASVGDRVTITCSASSSVSYIHWYQQKPGKAPKLLIYTTSYLAHGVPSRFSGSGSGTDFTLTISSLQPEDFATYYCLQRSTLPPTFGGGTKVEIKR",< 50 nM,< 50 nM,< 50 nM,< 50 nM,–,–,–,–
"Antibody of example 5 (Ab5) (antibody, human IgG4 S228P, kappa, F234A L235A, V domains shown, Humanized full antibody with kappa light chain and modified human IgG4 Fc) VH: QVQLQESGPGLVKPSETLSLTCTVSGDDITSGYHDWIRQPPGKGLEWIGYISYSGSTQYSPSLKSRVTISVDTSKNQFSLKLSSVTAADTAVYYCARPPGYYGFGPYALDYWGQGTLVTVSS VL: DIQMTQSPSSLSASVGDRVTITCSASSSVSYIHWYQQKPGKAPKLLIYTTSYLAHGVPSRFSGSGSGTDFTLTISSLQPEDFATYYCQQRSTLPPTFGGGTKVEIKR",< 50 nM,< 50 nM,< 50 nM,< 50 nM,–,–,–,–
"Fab fragment of antibody example 1 (Fab, V domains shown, Expressed in E. coli; Fab = VL+CL and VH+CH1 (Fc absent); also called Fab of Ab1; not shown: His tag) VH: QVQLQESGPGLVKPSETLSLTCTVSGDDITSGYWDWIRQPPGKGLEWIGYISYSGSTYYSPSLKSRVTISVDTSKNQFSLKLSSVTAADTAVYYCARPPGYYGFGPYALDYWGQGTLVTVSS VL: DIQMTQSPSSLSASVGDRVTITCSASSSVSYMHWYQQKPGKAPKLLIYTTSNLAHGVPSRFSGSGSGTDFTLTISSLQPEDFATYYCQWRSTLPPTFGGGTKVEIKR",< 50 nM,< 50 nM,< 50 nM,< 50 nM,–,–,–,–
"Fab fragment of antibody example 2 (Fab, V domains shown, Expressed in E. coli; Fab = VL+CL and VH+CH1 (Fc absent); also called Fab of Ab2; not shown: His tag) VH: QVQLQESGPGLVKPSETLSLTCTVSGDDITSGYWNWIRQPPGKGLEWIGYISYSGSTYYIPSLKSRVTISVDTSKNQFSLKLSSVTAADTAVYYCARPPGYYGFGPYAMDYWGQGTLVTVSS VL: DIQMTQSPSSLSASVGDRVTITCSYSSSVSYMHWYQQKPGKAPKLLIYTTSNLAHGVPSRFSGSGSGTDFTLTISSLQPEDFATYYCQQRSTLPPTFGGGTKVEIKR",< 50 nM,< 50 nM,< 50 nM,< 50 nM,–,–,–,–
"Fab fragment of antibody example 6 (Fab, V domains shown, Expressed in E. coli; Fab = VL+CL and VH+CH1 (Fc absent); also called Fab of Ab6; not shown: His tag) VH: QVQLQESGPGLVKPSETLSLTCTVSGDDITSGYHDWIRQPPGKGLEWIGYISYSGSTYYSPSLKSRVTISVDTSKNQFSLKLSSVTAADTAVYYCARPPAYYGFGPYALDYWGQGTLVTVSS VL: DIQMTQSPSSLSASVGDRVTITCSASSSVSYIHWYQQKPGKAPKLLIYTTSYLAHGVPSRFSGSGSGTDFTLTISSLQPEDFATYYCQQRSTLPPTFGGGTKVEIKR",< 50 nM,< 50 nM,< 50 nM,< 50 nM,–,–,–,–
"Antibody of example 2 (Ab2) (antibody, human IgG4 S228P, kappa, F234A L235A, V domains shown, Humanized full antibody with kappa light chain and modified human IgG4 Fc) VH: QVQLQESGPGLVKPSETLSLTCTVSGDDITSGYWNWIRQPPGKGLEWIGYISYSGSTYYIPSLKSRVTISVDTSKNQFSLKLSSVTAADTAVYYCARPPGYYGFGPYAMDYWGQGTLVTVSS VL: DIQMTQSPSSLSASVGDRVTITCSYSSSVSYMHWYQQKPGKAPKLLIYTTSNLAHGVPSRFSGSGSGTDFTLTISSLQPEDFATYYCQQRSTLPPTFGGGTKVEIKR",< 50 nM,< 50 nM,< 50 nM,< 50 nM,–,–,–,–
"Fab fragment of antibody example 7 (Fab, V domains shown, Expressed in E. coli; Fab = VL+CL and VH+CH1 (Fc absent); also called Fab of Ab7; not shown: His tag) VH: QVQLQESGPGLVKPSETLSLTCTVSGDDITSGYHEWIRQPPGKGLEWIGYISYSGSTSYSPSLKSRVTISVDTSKNQFSLKLSSVTAADTAVYYCARPPAYYGFGPYALDYWGQGTLVTVSS VL: DIQMTQSPSSLSASVGDRVTITCSASSSVSYIHWYQQKPGKAPKLLIYTTSYLAHGVPSRFSGSGSGTDFTLTISSLQPEDFATYYCQQRSTLPPTFGGGTKVEIKR",< 50 nM,< 50 nM,< 50 nM,< 50 nM,–,–,–,–

# The next lines start with the values.
Ki (human glucagon receptor [1]),Ki (mouse glucagon receptor [2]),Ki (rat glucagon receptor [3]),Ki [4],Ki (human glucagon receptor [5]),Ki (mouse glucagon receptor [6]),Ki (rat glucagon receptor [7]),Ki [8],Binder
< 50 nM,< 50 nM,< 50 nM,< 50 nM,–,–,–,–,"Antibody of example 6 (Ab6) (antibody, human IgG4 S228P, kappa, F234A L235A, V domains shown, Humanized full antibody with kappa light chain and modified human IgG4 Fc) VH: QVQLQESGPGLVKPSETLSLTCTVSGDDITSGYHDWIRQPPGKGLEWIGYISYSGSTYYSPSLKSRVTISVDTSKNQFSLKLSSVTAADTAVYYCARPPAYYGFGPYALDYWGQGTLVTVSS VL: DIQMTQSPSSLSASVGDRVTITCSASSSVSYIHWYQQKPGKAPKLLIYTTSYLAHGVPSRFSGSGSGTDFTLTISSLQPEDFATYYCQQRSTLPPTFGGGTKVEIKR"
< 50 nM,< 50 nM,< 50 nM,< 50 nM,–,–,–,–,"Fab fragment of antibody example 3 (Fab, V domains shown, Expressed in E. coli; Fab = VL+CL and VH+CH1 (Fc absent); also called Fab of Ab3; not shown: His tag) VH: QVQLQESGPGLVKPSETLSLTCTVSGDDITSGYWDWIRQPPGKGLEWIGYISYSGSTYYSPSLKSRVTISVDTSKNQFSLKLSSVTAADTAVYYCARPPGYYGFGPYALDYWGQGTLVTVSS VL: DIQMTQSPSSLSASVGDRVTITCSASSSVSYIHWYQQKPGKAPKLLIYTTSYLAHGVPSRFSGSGSGTDFTLTISSLQPEDFATYYCLQRSTLPPTFGGGTKVEIKR"
< 50 nM,< 50 nM,< 50 nM,< 50 nM,–,–,–,–,"Fab fragment of antibody example 5 (Fab, V domains shown, Expressed in E. coli; Fab = VL+CL and VH+CH1 (Fc absent); also called Fab of Ab5; not shown: His tag) VH: QVQLQESGPGLVKPSETLSLTCTVSGDDITSGYHDWIRQPPGKGLEWIGYISYSGSTQYSPSLKSRVTISVDTSKNQFSLKLSSVTAADTAVYYCARPPGYYGFGPYALDYWGQGTLVTVSS VL: DIQMTQSPSSLSASVGDRVTITCSASSSVSYIHWYQQKPGKAPKLLIYTTSYLAHGVPSRFSGSGSGTDFTLTISSLQPEDFATYYCQQRSTLPPTFGGGTKVEIKR"
< 50 nM,< 50 nM,< 50 nM,< 50 nM,–,–,–,–,"Antibody of example 1 (Ab1) (antibody, human IgG4 S228P, kappa, F234A L235A, V domains shown, Humanized full antibody with kappa light chain and modified human IgG4 Fc) VH: QVQLQESGPGLVKPSETLSLTCTVSGDDITSGYWDWIRQPPGKGLEWIGYISYSGSTYYSPSLKSRVTISVDTSKNQFSLKLSSVTAADTAVYYCARPPGYYGFGPYALDYWGQGTLVTVSS VL: DIQMTQSPSSLSASVGDRVTITCSASSSVSYMHWYQQKPGKAPKLLIYTTSNLAHGVPSRFSGSGSGTDFTLTISSLQPEDFATYYCQWRSTLPPTFGGGTKVEIKR"
